Test results from patent publication US20180303952A1.

Tests used:
[1] = target: human CD147 on the surface of human cell lines (human) (UniProt P35613); assay: cell-based or functional assay
[2] = target: human CD147 on the surface of human cell lines (human) (UniProt P35613); assay: FACS on human KYSE-70 esophageal epithelial cell line, Alexa Fluor 647 goat anti-human IgG detection

B1: humanized anti-human CD147 monoclonal antibody hu 3A11 Lc1/Hc1 (antibody, V domains shown)
VH: EVQLVESGGGLVQPGGSLRLSCAASGFTFSNYWMDWVRQAPGKGLEWVGEIRLKSYNYATHYAASVKGRFTISRDDSKNSVYLQMNSLKTEDTAVYYCTAAGTDYWGQGTLVTVSS
VL: DIQMTQSPSSLSASVGDRVTITCRASQSVRTDVGWYQQKPGKAPKLLIYYSSNRYTGVPSRFSGSGSGTDFTLTISSLQPEDFATYYCQQDYSSPYTFGQGTKLEIK
[1]
  EC50 of cytotoxicity, A253 cells (with vc-MMAE secondary antibody): < 1 nM
  EC50 of cytotoxicity, BHY cells (with vc-MMAE secondary antibody): < 1 nM
  EC50 of cytotoxicity, Detroit562 cells (with vc-MMAE secondary antibody): 0.008 nM
  EC50 of cytotoxicity, EFO-21 cells (with vc-MMAE secondary antibody): 1.4 nM
  EC50 of cytotoxicity, H69 cells (with vc-MMAE secondary antibody): 1 nM
  EC50 of cytotoxicity, H292 cells (with vc-MMAE secondary antibody): 0.07 nM
  EC50 of cytotoxicity, H358 cells (with vc-MMAE secondary antibody): 0.09 nM
  EC50 of cytotoxicity, H520 cells (with vc-MMAE secondary antibody): 11.2 nM
  EC50 of cytotoxicity, H1581 cells (with vc-MMAE secondary antibody): 0.039 nM
  EC50 of cytotoxicity, H1975 cells (with vc-MMAE secondary antibody): 0.09 nM
  EC50 of cytotoxicity, H2405 cells (with vc-MMAE secondary antibody): 0.3 nM
  EC50 of cytotoxicity, H2444 cells (with vc-MMAE secondary antibody): 1.8 nM
  EC50 of cytotoxicity, HCC 70 cells (with vc-MMAE secondary antibody): 0.94 nM
  EC50 of cytotoxicity, HCC1143 cells (with vc-MMAE secondary antibody): < 1 nM
  EC50 of cytotoxicity, HCC 1806 cells (with vc-MMAE secondary antibody): 0.68 nM
  EC50 of cytotoxicity, HCC1937 cells (with vc-MMAE secondary antibody): < 1 nM
  EC50 of cytotoxicity, HCC1954 cells (with vc-MMAE secondary antibody): < 1 nM
  EC50 of cytotoxicity, HCT 116 cells (with vc-MMAE secondary antibody): 1.8 nM
  EC50 of cytotoxicity, HPAC cells (with vc-MMAE secondary antibody): 0.21 nM
  EC50 of cytotoxicity, HPAF2 cells (with vc-MMAE secondary antibody): < 1 nM
  EC50 of cytotoxicity, KYSE70 cells (with vc-MMAE secondary antibody): 0.13 nM
  EC50 of cytotoxicity, KYSE150 cells (with vc-MMAE secondary antibody): 1.6 nM
  EC50 of cytotoxicity, LOVO cells (with vc-MMAE secondary antibody): < 1 nM
  EC50 of cytotoxicity, LS174T cells (with vc-MMAE secondary antibody): 1 nM
  EC50 of cytotoxicity, LS411N cells (with vc-MMAE secondary antibody): < 1 nM
  EC50 of cytotoxicity, PC3 cells (with vc-MMAE secondary antibody): < 1 nM
  EC50 of cytotoxicity, RT11-2/84 cells (with vc-MMAE secondary antibody): 1.94 nM
  EC50 of cytotoxicity, SCC1 cells (with vc-MMAE secondary antibody): 0.14 nM
  EC50 of cytotoxicity, SCC9 cells (with vc-MMAE secondary antibody): 0.37 nM
  EC50 of cytotoxicity, SCC25 cells (with vc-MMAE secondary antibody): 0.2 nM
  EC50 of cytotoxicity, SKOV3 cells (with vc-MMAE secondary antibody): 0.95 nM
  EC50 of cytotoxicity, SW1417 cells (with vc-MMAE secondary antibody): 0.8 nM
  EC50 of cytotoxicity, aspc1 cells (with vc-MMAE secondary antibody): 20.5 nM
  EC50 of cytotoxicity, miapaca1 cells (with vc-MMAE secondary antibody): 0.65 nM
  EC50 of cytotoxicity, sw48 cells (with vc-MMAE secondary antibody): < 1 nM
  EC50 of cytotoxicity, sw480 cells (with vc-MMAE secondary antibody): < 1 nM
  EC50 of in vitro cytotoxicity, A253 cells (with vc-MMAE secondary antibody): < 1 nM
  EC50 of in vitro cytotoxicity, AGS cells (with vc-MMAE secondary antibody): 0.09 nM
  EC50 of in vitro cytotoxicity, BHY cells (with vc-MMAE secondary antibody): < 1 nM
  EC50 of in vitro cytotoxicity, Detroit562 cells (with vc-MMAE secondary antibody): 0.008 nM
  EC50 of in vitro cytotoxicity, EFO-21 cells (with vc-MMAE secondary antibody): 1.4 nM
  EC50 of in vitro cytotoxicity, ESO26 cells (with vc-MMAE secondary antibody): 0.06 nM
  EC50 of in vitro cytotoxicity, FLO-1 cells (with vc-MMAE secondary antibody): 0.51 nM
  EC50 of in vitro cytotoxicity, H69 cells (with vc-MMAE secondary antibody): 1 nM
  EC50 of in vitro cytotoxicity, H226 cells (with vc-MMAE secondary antibody): 0.45 nM
  EC50 of in vitro cytotoxicity, H292 cells (with vc-MMAE secondary antibody): 0.07 nM
  EC50 of in vitro cytotoxicity, H358 cells (with vc-MMAE secondary antibody): 0.09 nM
  EC50 of in vitro cytotoxicity, H520 cells (with vc-MMAE secondary antibody): 11.2 nM
  EC50 of in vitro cytotoxicity, H1581 cells (with vc-MMAE secondary antibody): 0.039 nM
  EC50 of in vitro cytotoxicity, H1975 cells (with vc-MMAE secondary antibody): 0.09 nM
  EC50 of in vitro cytotoxicity, H2052 cells (with vc-MMAE secondary antibody): 0.03 nM
  EC50 of in vitro cytotoxicity, H2405 cells (with vc-MMAE secondary antibody): 0.3 nM
  EC50 of in vitro cytotoxicity, H2444 cells (with vc-MMAE secondary antibody): 1.8 nM
  EC50 of in vitro cytotoxicity, H2452 cells (with vc-MMAE secondary antibody): 0.94 nM
  EC50 of in vitro cytotoxicity, HCC 70 cells (with vc-MMAE secondary antibody): 0.94 nM
  EC50 of in vitro cytotoxicity, HCC1143 cells (with vc-MMAE secondary antibody): < 1 nM
  EC50 of in vitro cytotoxicity, HCC 1806 cells (with vc-MMAE secondary antibody): 0.68 nM
  EC50 of in vitro cytotoxicity, HCC1937 cells (with vc-MMAE secondary antibody): < 1 nM
  EC50 of in vitro cytotoxicity, HCC1954 cells (with vc-MMAE secondary antibody): < 1 nM
  EC50 of in vitro cytotoxicity, HCT 116 cells (with vc-MMAE secondary antibody): 1.8 nM
  EC50 of in vitro cytotoxicity, HPAC cells (with vc-MMAE secondary antibody): 0.21 nM
  EC50 of in vitro cytotoxicity, HPAF2 cells (with vc-MMAE secondary antibody): < 1 nM
  EC50 of in vitro cytotoxicity, HT29 (WIDR) cells (with vc-MMAE secondary antibody): 0.87 nM
  EC50 of in vitro cytotoxicity, Hs 746T cells (with vc-MMAE secondary antibody): 0.06 nM
  EC50 of in vitro cytotoxicity, KYSE70 cells (with vc-MMAE secondary antibody): 0.13 nM
  EC50 of in vitro cytotoxicity, KYSE150 cells (with vc-MMAE secondary antibody): 0.88 nM
  EC50 of in vitro cytotoxicity, KYSE410 cells (with vc-MMAE secondary antibody): 1.35 nM
  EC50 of in vitro cytotoxicity, LOVO cells (with vc-MMAE secondary antibody): < 1 nM
  EC50 of in vitro cytotoxicity, LS174T cells (with vc-MMAE secondary antibody): 1 nM
  EC50 of in vitro cytotoxicity, LS411N cells (with vc-MMAE secondary antibody): < 1 nM
  EC50 of in vitro cytotoxicity, MSTO-211H cells (with vc-MMAE secondary antibody): 0.37 nM
  EC50 of in vitro cytotoxicity, OACM5.1 C cells (with vc-MMAE secondary antibody): 1.1 nM
  EC50 of in vitro cytotoxicity, OE33 cells (with vc-MMAE secondary antibody): 0.29 nM
  EC50 of in vitro cytotoxicity, PC3 cells (with vc-MMAE secondary antibody): < 1 nM
  EC50 of in vitro cytotoxicity, RT11-2/84 cells (with vc-MMAE secondary antibody): 1.94 nM
  EC50 of in vitro cytotoxicity, SCC1 cells (with vc-MMAE secondary antibody): 0.14 nM
  EC50 of in vitro cytotoxicity, SCC9 cells (with vc-MMAE secondary antibody): 0.37 nM
  EC50 of in vitro cytotoxicity, SCC25 cells (with vc-MMAE secondary antibody): 0.2 nM
  EC50 of in vitro cytotoxicity, SK-GT-4 cells (with vc-MMAE secondary antibody): < 0.1 nM
  EC50 of in vitro cytotoxicity, SKBR3 cells (with vc-MMAE secondary antibody): 0.38 nM
  EC50 of in vitro cytotoxicity, SKOV3 cells (with vc-MMAE secondary antibody): 0.95 nM
  EC50 of in vitro cytotoxicity, SNU-1 cells (with vc-MMAE secondary antibody): 0.21 nM
  EC50 of in vitro cytotoxicity, SNU-5 cells (with vc-MMAE secondary antibody): 0.11 nM
  EC50 of in vitro cytotoxicity, SNU-16 cells (with vc-MMAE secondary antibody): 1.14 nM
  EC50 of in vitro cytotoxicity, SW1417 cells (with vc-MMAE secondary antibody): 0.8 nM
  EC50 of in vitro cytotoxicity, aspc1 cells (with vc-MMAE secondary antibody): 20.5 nM
  EC50 of in vitro cytotoxicity, miapaca1 cells (with vc-MMAE secondary antibody): 0.65 nM
  EC50 of in vitro cytotoxicity, sw48 cells (with vc-MMAE secondary antibody): < 1 nM
  EC50 of in vitro cytotoxicity, sw480 cells (with vc-MMAE secondary antibody): < 1 nM
[2]
  Kd: 1.65 nM
